The results in this text go back to paper PMC5397184 (Nucleic Acids Research, 2017).

Changes are numbered by the printed parent chain. In names and notes the source's numbering stands.

For data set [1], the target named is T1, E. coli β sliding clamp (wild type, His-tagged) (E. coli, UniProt P0A988 1-366). The experiment in a line: crystal structure.
The data set “crystal structure” deals with the molecule itself. The experiment in a line: crystal structure.
Data set [2] addresses T1, E. coli β sliding clamp (wild type, …). Briefly: SEC-MALS.

T1 sequence (P0A988 whole entry): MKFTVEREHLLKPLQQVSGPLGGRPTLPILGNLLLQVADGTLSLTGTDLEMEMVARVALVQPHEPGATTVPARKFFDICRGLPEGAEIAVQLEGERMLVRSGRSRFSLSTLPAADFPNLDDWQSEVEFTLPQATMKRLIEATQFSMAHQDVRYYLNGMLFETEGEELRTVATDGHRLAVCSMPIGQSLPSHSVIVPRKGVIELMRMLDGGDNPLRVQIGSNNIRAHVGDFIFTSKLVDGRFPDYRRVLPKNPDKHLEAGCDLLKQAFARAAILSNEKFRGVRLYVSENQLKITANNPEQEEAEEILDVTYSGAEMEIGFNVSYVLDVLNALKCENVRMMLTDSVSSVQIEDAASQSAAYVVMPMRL

B1: E. coli Hda (full-length, wild type) (natural protein)
chain: MNTPAQLSLPLYLPDDETFASFWPGDNSSLLAALQNVLRQEHSGYIYLWAREGAGRSHLLHAACAELSQRGDAVGYVPLDKRTWFVPEVLDGMEHLSLVCIDNIECIAGDELWEMAIFDLYNRILESGKTRLLITGDRPPRQLNLGLPDLASRLDWGQIYKLQPLSDEDKLQALQLRARLRGFELPEDVGRFLLKRLDREMRTLFMTLDQLDRASITAQRKLTIPFVKEILKL
As to B1, the binding result (in data set [1]; in “crystal structure”) was “binds” throughout.

B2: E. coli Hda W156A (natural protein)
chain: B1 chain with W156A
On to B2, for which the binding result in data set [2] is recorded as “binds”.

B3: E. coli Hda hook mutant (K81S, W84S, F85S) (natural protein)
chain: B1 chain with K81S, W84S, F85S
Consider B3, for which the binding result in data set [2] is “binds”.
